Legend:
Experiment in all cases: peptide or protein array; SPOT: 15-mer peptides on cellulose (CAPE) membrane; GST-SH3 domains at 10 μg/ml overnight at 4°C in blocking buffer (TBS, 50 mM Tris/HCl pH 7.6, 150 mM NaCl, Blocking Buffer, 0.15 M sucrose); detected with anti-GST antibody and HRP conjugate
Conditions in all cases: both partners purified
[1] = molecular target: T1, GST-tagged C. albicans Rvs167 SH3 domain (C. albicans, UniProt Q59LF3 382-440)
T1 construct: Rvs167 of Candida albicans, SH3 domain; also called CaRvs167; source: E. coli BL21(DE3), purified (glutathione Sepharose 4B); not shown: GST, N-terminal, kept
T1 sequence: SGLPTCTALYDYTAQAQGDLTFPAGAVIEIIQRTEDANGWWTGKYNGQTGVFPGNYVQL

[2] = molecular target: T2, GST-tagged S. pombe Rvs167 (Hob1) SH3 domain (S. pombe, UniProt O74352 407-466)
T2 construct: Rvs167 homolog of S. pombe, called Hob1, SH3 domain; also called SpRvs167; source: E. coli BL21(DE3), purified (glutathione Sepharose 4B); not shown: GST, N-terminal, kept
T2 sequence (looked up): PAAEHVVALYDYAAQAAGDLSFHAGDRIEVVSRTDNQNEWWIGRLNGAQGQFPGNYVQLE

[3] = molecular target: T3, GST-tagged S. cerevisiae Rvs167 SH3 domain (S. cerevisiae, UniProt P39743 421-482)
T3 construct: Rvs167, S. cerevisiae, SH3 domain; also called ScRvs167; source: E. coli BL21(DE3), purified (glutathione Sepharose 4B); not shown: GST, N-terminal, kept

Measured: binding result

T3 sequence (P39743 421-482): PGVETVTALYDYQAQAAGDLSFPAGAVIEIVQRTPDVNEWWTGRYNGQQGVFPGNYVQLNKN

B1: Type II peptide #66 (SPOT membrane) (peptide)
peptide: SSSSTPPTLPPRRIE
notes: 15-mer of the SH3-SPOT library mined from the S. cerevisiae proteome; In the SPOT library all cysteines were replaced by serines; source: synthetic peptide, SPOT synthesis on cellulose (CAPE) membrane
binds: all assays above

Source: publication PMC4466140, “Evolution of the SH3 Domain Specificity Landscape in Yeasts” (PLoS ONE, 2015)
